Source: paper PMC3471927, “The PduQ Enzyme Is an Alcohol Dehydrogenase Used to Recycle NAD^+ Internally within the Pdu Microcompartment of Salmonella enterica” (PLoS ONE, 2012)

What was measured:
[1] = target: T1, PduP (Salmonella enterica, UniProt Q9XDN1); experiment: thioester formation at […] nm in purified Pdu MCPs; assay type: biochemical; details: 10 mM propionaldehyde, 200 mM 1,2-propanediol, 40 µM NAD+, 100 µM HS-CoA, 100 mM sodium phosphate pH 7.0
T1 construct: native PduP within anaerobically purified Pdu microcompartments (wild-type and pduQ deletion strain BE903)
T1 sequence (Q9XDN1 whole entry): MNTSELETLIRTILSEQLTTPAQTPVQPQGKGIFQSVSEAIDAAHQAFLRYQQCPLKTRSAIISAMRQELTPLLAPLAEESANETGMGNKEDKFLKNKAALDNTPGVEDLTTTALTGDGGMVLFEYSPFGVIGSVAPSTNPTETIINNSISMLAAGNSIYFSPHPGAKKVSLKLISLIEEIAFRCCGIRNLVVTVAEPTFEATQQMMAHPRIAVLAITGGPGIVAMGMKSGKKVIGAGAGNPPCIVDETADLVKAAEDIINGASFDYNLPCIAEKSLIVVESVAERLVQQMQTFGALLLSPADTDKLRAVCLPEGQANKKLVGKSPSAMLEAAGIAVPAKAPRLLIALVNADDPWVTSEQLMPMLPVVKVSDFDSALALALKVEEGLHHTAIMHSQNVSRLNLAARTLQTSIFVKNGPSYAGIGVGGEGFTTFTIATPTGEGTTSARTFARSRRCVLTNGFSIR

[2] = substrate: NC(=O)c1ccc[n+]([C@@H]2O[C@H](COP(=O)(O)OP(=O)(O)OC[C@H]3O[C@@H](n4cnc5c(N)ncnc54)[C@H](O)[C@@H]3O)[C@@H](O)[C@H]2O)c1; experiment: purified protein; assay type: biochemical, Salmonella enterica; details: 800 mM 1-propanol, 100 mM Tris-HCl pH 9.0, anaerobic; pH 9.0
[3] = substrate: CCCO; experiment: purified protein; assay type: biochemical, Salmonella enterica; details: 2 mM NAD+, 100 mM Tris-HCl pH 9.0, anaerobic; pH 9.0
[4] = substrate: NC(=O)C1=CN([C@@H]2O[C@H](COP(=O)(O)OP(=O)(O)OC[C@H]3O[C@@H](n4cnc5c(N)ncnc54)[C@H](O)[C@@H]3O)[C@@H](O)[C@H]2O)C=CC1; experiment: purified protein; assay type: biochemical, Salmonella enterica; details: 150 mM propionaldehyde, 100 mM sodium phosphate pH 7.0, anaerobic; pH 7.0
[5] = substrate: CCC=O; experiment: purified protein; assay type: biochemical, Salmonella enterica; details: 0.4 mM NADH, 100 mM sodium phosphate pH 7.0, anaerobic; pH 7.0

Molecule: NC(=O)c1ccc[n+]([C@@H]2O[C@H](COP(=O)(O)OP(=O)(O)OC[C@H]3O[C@@H](n4cnc5c(N)ncnc54)[C@H](O)[C@@H]3O)[C@@H](O)[C@H]2O)c1 [NAD^+]
- thioester formation at 232 nm in purified Pdu MCPs [1]: no measureable PduP activity without added HS-CoA, NAD^+ or propionaldehyde

Molecule: CCC=O [propionaldehyde]
- thioester formation at 232 nm in purified Pdu MCPs [1]: no measureable PduP activity without added HS-CoA, NAD^+ or propionaldehyde

B1: PduQ-His6 (Salmonella enterica subsp. enterica serovar Typhimurium str. LT2) (protein)
chain: MNTFSLQTRLYSGQGSLAVLKRFTNKHIWIICDGFLAHSPLLDTLRNALPADNRISVFSEITPDPTIHTVVQGIAQMQALQPQVVIGFGGGSAMDAAKAIVWFSQQSGINIETCVAIPTTSGTGSEVTSACVISDPDKGIKYPLFNNALYPDMAILDPELVVSVPPQITANTGMDVLTHALEAWVSPRASDFTDALAEKAAKLVFQYLPTAVEKGDCVATRGKMHNASTLAGMAFSQAGLGLNHAIAHQLGGQFHLPHGLANALLLTTVIRFNAGVPRAAKRYARLAKACGFCPAEANDIAAINALIQQIELLKQRCVLPSLAVALKEGRSDFSARIPAMVQAALADVTLRTNPRPANAEAIRELLEELL
notes: full length, C-terminal His6 kept, pET-41a in E. coli BL21(DE3) RIL, anaerobic Ni-NTA
- Km [2]: 267.5 ± 22.3 µM
- Vmax [2]: 9.2 µmol/min/mg
- kcat [2]: 6.18 s⁻¹
- kcat/Km [2]: 23100 M⁻¹ s⁻¹
- Km [3]: (95.8±9.2)×10^3 µM
- Vmax [3]: 8.4 µmol/min/mg
- kcat [3]: 5.64 s⁻¹
- kcat/Km [3]: 58.9 M⁻¹ s⁻¹
- Km [4]: 45.3 ± 5.3 µM
- Vmax [4]: 77.7 µmol/min/mg
- kcat [4]: 52.2 s⁻¹
- kcat/Km [4]: 1.15e+06 M⁻¹ s⁻¹
- Km [5]: (16.0±2.0)×10^3 µM
- Vmax [5]: 81.3 µmol/min/mg
- kcat [5]: 54.6 s⁻¹
- kcat/Km [5]: 3410 M⁻¹ s⁻¹
